Assay results from patent US20040133357A1 (ABMAXIS, published 2004).

Key:
[1] = target: T1, purified recombinant human VEGF165 (human, UniProt P15692 27-191, glycosylated); test: SPR (BIAcore), scFv over VEGF immobilized on CM5 chip, 25 C; reference hAB1
T1 construct: mature; Bought from Calbiochem; also called VEGF protein (Calbiochem); homodimeric VEGF protein
Experimental: (§1) BIAcore Biosensor Assay was used to determine antibody affinity. VEGF protein (purchased from Calbiochem) was coupled to a CM-5 biosensor ship by amine coupling. After immobilization, CM-5 chips with 200 to 1000 response unites of VEGF were kept at 4° C. before use. All experiments were performed at 25° C. or 35° C. Each sample in PBS buffer was injected over VEGF surface at a flow rate of 20 ul/min using Biacore 1000 (Biacore AB, Sweden), and bound antibodies were removed from chip by 10 ul of glycine-HCl, PH 1.5 at the end of each cycle. Each sensorgram was recorded and normalized to a PBS base line.

[2] = target: T1, purified recombinant human VEGF165; test: SPR (BIAcore), scFv over VEGF immobilized on CM5 chip; reference hAB1
Experimental: (§2) Antibody fragments in the format of single chain were expressed as described below and purified. The measurement was done by measuring the change of SPR units (y-axis) vs time (x-axis) when a purified antibody binds its antigen (VEGF) immobilized on the CM5 biochip at 25° C. Kd values were calculated by the […].
as §1

[3] = target: T1, purified recombinant human VEGF165; test: SPR (BIAcore), purified scFv over VEGF immobilized on CM5 chip, 25 C
Experimental: as §2, §1

T1 sequence (P15692 other isoform, or with tags, fused parts or gaps limits assumed): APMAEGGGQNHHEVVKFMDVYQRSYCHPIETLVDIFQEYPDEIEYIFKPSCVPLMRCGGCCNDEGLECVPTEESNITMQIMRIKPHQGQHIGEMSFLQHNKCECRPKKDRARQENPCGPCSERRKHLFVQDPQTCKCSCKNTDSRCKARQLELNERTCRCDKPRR

| fold higher binding affinity than the parental/reference antibody (hAB1) [1] | fold higher binding affinity than hAB1 [2] | Kd [3] | hAB1 Kd/Variant Kd [3] | koff [3] | kon [3] | Binder |
| --- | --- | --- | --- | --- | --- | --- |
| ~4 fold | 4 fold | 3.1 nM | 4.2 | 0.000115 s⁻¹ | 37400 M⁻¹ s⁻¹ | hAB3 (scFv, Single chain format; not shown: HA-His6 tag at C-terminus) scFv: EVQLVQSGGGVVQPGGSLRLSCAASGYTFTNYGMNWIRQAPGKGLEWVGWINTYTGEPTYAADFKRRVTFSLDTSKSTAYLQLNSLRAEDTAVYYCAKYPHYYGSSHWYFDVWGQGTLVTVSSGGGGSGGGGSGGGGSDIQMTQSPSSLSASVGDRVTITCSASQDISNYLNWYQQKPGKAPKVLIYFTSSLHSGVPSRFSGSGSGTDFTLTISSLQPEDFATYYCQQYSTVPWTFGQGTKVEIK |
| – | 2 fold | 26 nM | 0.5 | 0.000104 s⁻¹ | 4000 M⁻¹ s⁻¹ | hAB4 (scFv, Single chain format; not shown: HA-His6 tag at C-terminus) scFv: QVQLVQSGGGVVQPGGSLRLTCAASGYTFTNYGMNWVRQAPGKGLEWVGWINTYTGEPTYAADFKRRFTISLDTSKSQAYLQMNSLRAEDTAVYYCAKYPHYYGSSHWYFDVWGQGTLVTVSSGGGGSGGGGSGGGGSDIQMTQSPSSLSASVGDRVTITCSASQDISNYLNWYQQKPGKAPKVLIYFTSSLHSGVPSRFSGSGSGTDFTLTISSLQPEDFATYYCQQYSTVPWTFGQGTKVEIK |
